B1: ZNF511 (parent)
chain: HLYPADFRFDKPKKSRSPASAEAP
B2: SMOC2 (parent)
chain: DCAGSPQKPLCASDGRTFLSRCEF

Variants of: B1
Assay: protein stability index of a GFP-peptide fusion (GPS, HEK-293T) (PSI 1-6); higher = more stable
Conditions: c terminus: a fixed tail appended
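Note: lentivirally expressed fusions sorted by FACS into six bins by GFP to DsRed ratio, PSI derived from sequencing read proportions per bin multiplied by bin number.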

In order of rising protein stability index:
1. F9A  1.29
2. D6I  1.47
3. F9E  1.88
4. L2I  1.9
5. F9M  2.01
6. R8S  2.05
7. K11W  2.11
8. D6A  2.12
9. D10A  2.16
10. K13V  2.22
11. A5E  2.3
12. P18F  2.3
13. P18Y  2.34
14. R8Y  2.37
15. P24R  2.39
16. P24G  2.42
17. A5M  2.48
18. S15Y  2.51
19. E22F  2.52
20. P24M  2.53
21. D10P  2.54
22. A19Q  2.56
23. S15C  2.56
24. A5G  2.62
25. K11M  2.62
26. F9G  2.63
27. A23Y  2.63
28. S20I  2.64
29. S20H  2.69
30. L2V  2.69
31. D10T  2.69
32. S17F  2.7
33. D10R  2.71
34. P12M  2.72
35. A23V  2.73
36. A23F  2.76
37. A5Y  2.79
38. P18R  2.79
39. K14T  2.8
40. D10K  2.8
41. R8H  2.82
42. S17P  2.83
43. P24C  2.88
44. K11R  2.89
45. E22I  2.93
46. P24F  2.94
47. P12Y  2.94
48. P12C  2.94
49. A5K  2.97
50. S20R  2.97
51. A19E  2.97
52. P24V  2.98
53. K11H  2.98
54. A21M  3
55. D6H  3
56. K13D  3.04
57. A5T  3.11
58. R16H  3.13
59. P12F  3.14
60. R16D  3.18
61. A21F  3.18
62. K13R  3.2
63. P12D  3.2
64. D6G  3.23
65. R16Q  3.28
66. A23G  3.28
67. R8K  3.3
68. R16E  3.34
69. S15D  3.35
70. K11N  3.37
71. A19S  3.44
72. A5I  3.5
73. P18T  3.52
74. K11V  3.52
75. P4C  3.54
76. K11I  3.56
77. H1R  3.57
78. L2Q  3.59
79. K13P  3.64
80. Y3I  3.73
81. P4N  3.78
82. P4S  3.9
83. R8E  3.93
84. H1K  4.05
85. F7P  4.24
86. Y3R  4.26
87. P4E  4.33
88. F7M  4.38
89. L2N  4.38
90. Y3G  4.38
91. P4K  4.5
92. L2P  4.52
93. L2K  4.6
94. L2E  4.73
95. Y3P  4.73

Variants of: B2
Assay: as above
Conditions: c terminus: a fixed tail appended

In order of falling protein stability index:
1. L19D  4.93
2. R21G  4.57
3. C22E  4.38
4. C22N  4.36
5. F18H  4.32
6. C22Q  4.19
7. F18L  4.12
8. G15A  4.08
9. T17G  3.97
10. A12E  3.96
11. F24N  3.93
12. C22A  3.86
13. L19H  3.82
14. D1E  3.69
15. R16N  3.61
16. G15D  3.49
17. C11P  3.47
18. F24S  3.46
19. G4H  3.44
20. R16P  3.43
21. R16G  3.4
22. F18I  3.4
23. A12T  3.32
24. G4T  3.2
25. T17D  3.12
26. S20L  3.1
27. L19S  3.06
28. R21L  3.02
29. S20C  2.86
30. G15R  2.83
31. A3Q  2.82
32. R21A  2.71
33. A3I  2.71
34. C11A  2.7
35. P9T  2.69
36. K8I  2.68
37. S5Y  2.68
38. R21K  2.67
39. D1P  2.66
40. S5R  2.66
41. P6N  2.66
42. A3N  2.66
43. L19T  2.59
44. S13Q  2.58
45. C2V  2.58
46. D14A  2.52
47. A12I  2.5
48. C22L  2.5
49. C11T  2.48
50. D14N  2.47
51. L10Y  2.47
52. D14K  2.4
53. D14P  2.36
54. S13R  2.34
55. R16C  2.33
56. G4M  2.32
57. G15K  2.3
58. A12G  2.29
59. S13Y  2.25
60. C2I  2.25
61. S5C  2.24
62. D1N  2.2
63. K8E  2.17
64. S5I  2.14
65. S5Q  2.09
66. G4R  2.08
67. G15W  2.06
68. D1H  2.02
69. D14M  2
70. L10F  1.82
71. D14F  1.81
72. R21I  1.67
